Where a chain is given by its changes, count along the chain named.
B1: Fv4-IgG1-F20 (antibody)
heavy: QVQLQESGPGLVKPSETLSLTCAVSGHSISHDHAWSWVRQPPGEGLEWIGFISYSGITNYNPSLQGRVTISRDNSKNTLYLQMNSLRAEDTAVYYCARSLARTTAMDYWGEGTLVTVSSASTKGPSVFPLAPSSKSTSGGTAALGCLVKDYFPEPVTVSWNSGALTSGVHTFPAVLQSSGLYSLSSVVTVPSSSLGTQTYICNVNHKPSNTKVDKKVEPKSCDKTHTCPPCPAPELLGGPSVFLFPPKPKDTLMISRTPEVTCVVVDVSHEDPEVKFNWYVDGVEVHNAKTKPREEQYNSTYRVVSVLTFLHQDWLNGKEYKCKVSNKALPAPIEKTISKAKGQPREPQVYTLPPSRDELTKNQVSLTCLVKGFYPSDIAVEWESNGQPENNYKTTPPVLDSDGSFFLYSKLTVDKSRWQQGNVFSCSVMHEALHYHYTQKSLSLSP
light: DIQMTQSPSSLSASVGDSVTITCQASTDISSHLNWYQQKPGKAPELLIYYGSHLLSGVPSRFSGSGSGTDFTFTISSLEAEDAATYYCGQGNRLPYTFGQGTKVEIERTVAAPSVFIFPPSDEQLKSGTASVVCLLNNFYPREAKVQWKVDNALQSGNSQESVTEQDSKDSTYSLSSTLTLSKADYEKHKVYACEVTHQGLSSPVTKSFNRGEC
notes: also called VH3-IgG1-F20/VL3-CK
B2: IL6R-BP478/IL6R-L (antibody)
chain 1: QVQLQESGPGLVKPSETLSLTCAVSGHSISHDHAWSWVRQPPGEGLEWIGFISYSGITNYNPSLQGRVTISRDNSKNTLYLQMNSLRAEDTAVYYCARSLARTTAMDYWGEGTLVTVSSASTKGPSVFPLAPCSRSTSESTAALGCLVKDYFPEPVTVSWNSGALTSGVHTFPAVLQSSGLYSLSSVVTVPSSSLGTKTYTCNVDHKPSNTKVDKRVESKYGPPCPPCPAPDLLGDDSVFLFPPKPKDTLMISRTPEVTCVVVDVSDEDGEVKFNWYVDGVEVHNAKTKPREEQDNSTYRVVSVLTVLHQDWLNGKEYKCKVSNKALPRPIEKTISKAKGQPREPQVYTLPPSRDELTKNQVSLTCLVKGFYPSDIAVEWESNGQPENNYKTTPPVLDSDGSFFLYSKLTVDKSRWQQGNVFSCSVMHEALHNHYTQESLSLSP
chain 2: not shown
B3: mPM1-mIgG1-mF3 (antibody)
heavy: DVQLQESGPVLVKPSQSLSLTCTVTGYSITSDHAWSWIRQFPGNKLEWMGYISYSGITTYNPSLKSRISITRDTSKNQFFLQLNSVTTGDTSTYYCARSLARTTAMDYWGQGTSVTVSSAKTTPPSVYPLAPGSAAQTNSMVTLGCLVKGYFPEPVTVTWNSGSLSSGVHTFPAVLQSDLYTLSSSVTVPSSTWPSETVTCNVAHPASSTKVDKKIVPRDCGCKPCICTVPEVSSVFIFPPKPKDVLYITLEPKVTCVVVDISKDDPEVQFSWFVDDVEVHTAQTQPREEQFNSTFRSVSELPIMHQDWLNGKEFKCRVNSAAFPAPIEKTISKTKGRPKAPQVYTIPPPKEQMAKDKVSLTCMITDFFPEDITVEWQWNGQPAENYKNTQPIMDTDGSYFVYSKLNVQKSNWEAGNTFTCSVLHEGLKFHHTEKSLSHSPGK
light: DIQMTQTTSSLSASLGDRVTISCRASQDISSYLNWYQQKPDGTIKLLIYYTSRLHSGVPSRFSGSGSGTDYSLTINNLEQEDIATYFCQQGNTLPYTFGGGTKLEIKRADAAPTVSIFPPSSEQLTSGGASVVCFLNNFYPKDINVKWKIDGSERQNGVLNSWTDQDSKDSTYSMSSTLTLTKDEYERHNSYTCEATHKTSTSPIVKSFNRNEC
notes: mouse IgG1; also called mPM1H-mIgG1-mF3/mPM1L-mk1
B4: IL6R-BP480/IL6R-L (antibody)
chain 1: QVQLQESGPGLVKPSETLSLTCAVSGHSISHDHAWSWVRQPPGEGLEWIGFISYSGITNYNPSLQGRVTISRDNSKNTLYLQMNSLRAEDTAVYYCARSLARTTAMDYWGEGTLVTVSSASTKGPSVFPLAPSSKSTSGGTAALGCLVKDYFPEPVTVSWNSGALTSGVHTFPAVLQSSGLYSLSSVVTVPSSSLGTQTYICNVNHKPSNTKVDKKVEPKSCDKTHTCPPCPAPDLLGDDSVFLFPPKPKDTLMISRTPEVTCVVVDLSEDDGEVKFNWYVDGVEVHNAKTKPREEQYNSTYRVVSVLTVLHQDWLNGKEYKCKVSNKALPAPIEKTISKAKGQPREPQVYTLPPSRDELTKNQVSLTCLVKGFYPSDIAVEWESNGQPENNYKTTPPVLDSDGSFFLYSKLTVDKSRWQQGNVFSCSVMHEALHNHYTQESLSLSP
chain 2: not shown
B5: IL6R-BP426/IL6R-L (antibody)
chain 1: B4 chain 1 with L268V, S269A, A332R
chain 2: not shown

How the values were obtained:
[1] = target: T1, マウスFcγRI (mouse, UniProt P26151 25-297, limits assumed); test: SPR, Biacore; antibody captured on immobilised mouse FcRn, FcγR as analyte, pH 7.4, 25C
T1 construct: also called mouse FcγRI
T1 sequence (looked up): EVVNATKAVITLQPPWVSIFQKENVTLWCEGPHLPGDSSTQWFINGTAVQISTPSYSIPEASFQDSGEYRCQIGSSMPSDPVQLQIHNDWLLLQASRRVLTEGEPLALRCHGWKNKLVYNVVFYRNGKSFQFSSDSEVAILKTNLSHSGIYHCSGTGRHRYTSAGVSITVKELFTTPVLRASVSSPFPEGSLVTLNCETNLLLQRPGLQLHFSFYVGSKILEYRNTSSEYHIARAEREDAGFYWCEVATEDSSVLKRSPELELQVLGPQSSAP

[2] = target: T2, マウスFcγRIIb (mouse, UniProt P08101 30-210, limits assumed); test: as above
T2 construct: also called mouse FcγRIIb
T2 sequence (looked up): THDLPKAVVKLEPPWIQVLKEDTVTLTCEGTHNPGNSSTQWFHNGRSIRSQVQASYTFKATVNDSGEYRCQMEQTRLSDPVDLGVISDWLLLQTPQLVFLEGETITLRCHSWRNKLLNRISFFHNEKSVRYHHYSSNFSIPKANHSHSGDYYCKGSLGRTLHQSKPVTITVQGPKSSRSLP

[3] = target: T3, マウスFcγRIII (mouse, UniProt P08508 31-215, limits assumed); test: as above
T3 construct: also called mouse FcγRIII
T3 sequence (looked up): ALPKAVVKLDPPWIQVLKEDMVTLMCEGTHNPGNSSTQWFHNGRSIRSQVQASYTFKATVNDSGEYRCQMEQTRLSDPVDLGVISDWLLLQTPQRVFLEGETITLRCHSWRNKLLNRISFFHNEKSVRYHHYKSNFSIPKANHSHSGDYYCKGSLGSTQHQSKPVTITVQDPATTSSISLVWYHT

[4] = target: T4, ヒトFcγRIIa (R) (human, UniProt P12318 34-217); test: SPR, KD; reference IL6R-BP230/IL6R-L
T4 construct: extracellular domain; N-glycans trimmed with Endo F1/F2/F3 for the crystals; also called FcγRIIa R型
T4 sequence (looked up): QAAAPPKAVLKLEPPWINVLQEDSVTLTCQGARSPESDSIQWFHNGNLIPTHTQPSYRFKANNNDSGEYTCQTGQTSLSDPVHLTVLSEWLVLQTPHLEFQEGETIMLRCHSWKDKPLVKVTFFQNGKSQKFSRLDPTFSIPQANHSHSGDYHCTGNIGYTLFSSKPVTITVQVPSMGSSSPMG

[5] = target: T5, ヒトFcγRIIb (human, UniProt P31994 43-217); test: SPR, KD; reference IL6R-BP230/IL6R-L
T5 construct: extracellular domain; for the crystals it was expressed with kifunensine and its N-glycans trimmed with Endo F1; also called FcγRIIb細胞外領域
T5 sequence (looked up): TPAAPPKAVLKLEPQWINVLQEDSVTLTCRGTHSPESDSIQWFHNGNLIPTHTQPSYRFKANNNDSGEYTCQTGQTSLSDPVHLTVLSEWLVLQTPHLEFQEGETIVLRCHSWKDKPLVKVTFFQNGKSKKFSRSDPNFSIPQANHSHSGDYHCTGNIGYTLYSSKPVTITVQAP

[6] = target: T5, ヒトFcγRIIb; test: SPR; KD for FcγRIIaH divided by KD for FcγRIIb

Row | Binder | binding result [1] | binding result [2] | binding result [3] | KD (IIaH)/KD (IIb) [6] | also measured
1 | B1 | binds | binds | binds |  | 
2 | B2 |  |  |  |  | binding relative to IL6R-BP230/IL6R-L [4]: 0.9 fold; fold enhancement of binding against IL6R-BP230/IL6R-L [5]: 1.1 fold
3 | B3 | no binding | binds | binds |  | 
4 | B4 |  |  |  | 108 ratio | 
5 | B5 |  |  |  | 8360 ratio | 
